The values below come from publication PMC5575007, “Intermolecular base stacking mediates RNA-RNA interaction in a crystal structure of the RNA chaperone Hfq”.

In data set [1] the target is T1, Hfq102R16A,R17A (Escherichia coli, UniProt P0A6X3 1-102, R16A;R17A). As to the kind of experiment: EMSA; significant supershift; ITC/FA: 0.25 M NaCl, 20 mM Hepes/NaOH pH 8.0, 5 mM MgCl2, 2% glycerol, 25 C (FA plus 1 g/l BSA); EMSA: 0.25 M NaCl, 50 mM Tris pH 7.5, 10% glycerol, 25 C, 20 nM RNA, 2-200 nM Hfq. To be noted: protein: recombinant; tags: 6xHis-SUMO tag cleaved (SenP2); chain copies: 6; label: 5'-32P. Background: A gel shift assay detects complexes by their altered migration in electrophoresis.

Data set [2] concerns the target T2, Hfq102 (Escherichia coli, UniProt P0A6X3 1-102). Kind of data set: AUC; s = 4.5S alone; with fhlA segment ternary s = 5.9S; ITC/FA: 0.25 M NaCl, 20 mM Hepes/NaOH pH 8.0, 5 mM MgCl2, 2% glycerol, 25 C (FA plus 1 g/l BSA); EMSA: 0.25 M NaCl, 50 mM Tris pH 7.5, 10% glycerol, 25 C, 20 nM RNA, 2-200 nM Hfq. To be noted: protein: recombinant; tags: 6xHis-SUMO tag cleaved (SenP2); chain copies: 6; label: 3' Cy5 or Cy3.

The target in data set [3] is T1, Hfq102R16A,R17A. Kind of data set: EMSA; two shifted bands; ITC/FA: 0.25 M NaCl, 20 mM Hepes/NaOH pH 8.0, 5 mM MgCl2, 2% glycerol, 25 C (FA plus 1 g/l BSA); EMSA: 0.25 M NaCl, 50 mM Tris pH 7.5, 10% glycerol, 25 C, 20 nM RNA, 2-200 nM Hfq. The following applies: protein: recombinant; tags: 6xHis-SUMO tag cleaved (SenP2); chain copies: 6; label: none (AUC, ITC); 5'-32P (EMSA).

Data set [4] has as its target T3, Hfq72 (Escherichia coli, UniProt P0A6X3 1-72). As to the kind of experiment: ITC; first of two events; ITC/FA: 0.25 M NaCl, 20 mM Hepes/NaOH pH 8.0, 5 mM MgCl2, 2% glycerol, 25 C (FA plus 1 g/l BSA); EMSA: 0.25 M NaCl, 50 mM Tris pH 7.5, 10% glycerol, 25 C, 20 nM RNA, 2-200 nM Hfq. The following applies: protein: recombinant; tags: 6xHis-SUMO tag cleaved (SenP2); chain copies: 6; label: none (AUC, ITC); 5'-32P (EMSA). (ITC needs no label: the signal is the heat of the interaction.)

In data set [5] the target is T3, Hfq72. Kind of data set: X-ray crystallography; 2.5 A; distal face; (Hfq6:A18)2 dimer by N-site base stacking; pH 4.2; ITC/FA: 0.25 M NaCl, 20 mM Hepes/NaOH pH 8.0, 5 mM MgCl2, 2% glycerol, 25 C (FA plus 1 g/l BSA); EMSA: 0.25 M NaCl, 50 mM Tris pH 7.5, 10% glycerol, 25 C, 20 nM RNA, 2-200 nM Hfq. The following applies: protein: recombinant; tags: 6xHis-SUMO tag cleaved (SenP2); chain copies: 6.

Data set [6] has as its target T3, Hfq72. Kind of data set: fluorescence anisotropy; first of two events; 1 g/l BSA; ITC/FA: 0.25 M NaCl, 20 mM Hepes/NaOH pH 8.0, 5 mM MgCl2, 2% glycerol, 25 C (FA plus 1 g/l BSA); EMSA: 0.25 M NaCl, 50 mM Tris pH 7.5, 10% glycerol, 25 C, 20 nM RNA, 2-200 nM Hfq. The following applies: protein: recombinant; tags: 6xHis-SUMO tag cleaved (SenP2); chain copies: 6; label: 3'-ATTO488. Background: Fluorescence polarisation rises when a labelled molecule tumbles more slowly, as on binding a larger partner.

Data set [7] concerns the target T2, Hfq102. Kind of data set: AUC; s = 4.5S alone; with OxyS segment ternary s = 5.9S; ITC/FA: 0.25 M NaCl, 20 mM Hepes/NaOH pH 8.0, 5 mM MgCl2, 2% glycerol, 25 C (FA plus 1 g/l BSA); EMSA: 0.25 M NaCl, 50 mM Tris pH 7.5, 10% glycerol, 25 C, 20 nM RNA, 2-200 nM Hfq. The following applies: protein: recombinant; tags: 6xHis-SUMO tag cleaved (SenP2); chain copies: 6; label: 3' Cy3 or Cy5.

For the molecule AAGAAGAAGAAGAAGAAGAA (ssRNA) [AAG], in the data set with Hfq102R16A,R17A [1], the binding result is reported as “binds”.
UCAACUCGAAUAACUAAAGCCAACGUGAAC (ssRNA) [OxyS (ARN)X segment]: the binding result with Hfq102 [2] is given as “binds”.
Turning to AAAAAAAAAAAAAAAAAAAA (ssRNA) [A20], the binding result with Hfq102R16A,R17A [3] is “binds”. The Kd (usually a measure of binding affinity in units of concentration) in the data set with Hfq72 [4] is 1.3 nM.
Take AAAAAAAAAAAAAAAAAA (ssRNA) [A18 (ordered part of A30)]: in the data set with Hfq72 [5], the binding result is “binds”.
Take AAAAAAAAAAAAAAAAAAAA (ssRNA) [A20-ATTO488]: in the data set with Hfq72 [6], the Kd stood at 0.4 nM.
As for CUAAUAAAAUUCUACCUAGAAGAACAAAAUGUC (ssRNA) [fhlA (ARN)X segment], the binding result with Hfq102 [7] is listed as “binds”.
